Laboratory results: the nanobody polyreactivity screen of Harvey et al. (2022)

Assay: yeast display, Sf9 membrane polyspecificity reagent, FACS + sequencing; frameworks hold sequencing errors
Procedure, shortened: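 After 36–48 hours of galactose induction, yeast (Saccharomyces cerevisiae BJ5465) displaying a synthetic nanobody library were stained at 4 °C for 1 hour with 10% biotinylated, detergent-solubilized Sf9 membrane reagent. Streptavidin microbeads enriched the stained cells before FACS sorting into low and high (top ~1%) gates on anti-HA and streptavidin fluorescence. Each clone's polyreactivity label reflects its gate of origin.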

Sequence	polyreactivity (PSR sort gate)
QVQLVESGGGLVQAGGSLRLSCAASGRIFQYYAMGWYRQAPGKERELVAAITSGGRTTYADSVKGRFTISRDNAKNTVYLQMNSLKPEVTAVYYCNAKTWYSYNYWGQGTQVTVSS	high polyreactivity
QVQIVESGGGLVQAGGSLRLSCAASGSIFPAYAMGWYRQAPGKEREFVAAISGTGGITYYADSVKGRFTISRDNAKNTVYLQMNSLKPEDTAVYFCAAPVYNRDKHDYDYWGQGTQVTVSS	low polyreactivity
QVQLVESGGGLVQAGGSLRLSCAASGFIFLYAMGWSRQAPRKERELVAAISWSDTSTYYADSVKGRFTISRDNAKNTVYLQMNSLIPEDTAVYFCNAETWNYGDFDYWGQGTQVTVSS	high polyreactivity
QVQLVESGGGLLQAGGSLPLSCAASGRIFIKYAMGWYRPAPGKERELVAAISQSGGSTYYADSVKGRFTISRDNAKNTVYLQMNSLKPEDTAVYYCAAGNRRLGGRLYRYYYWGQGPQVTVSS	high polyreactivity
QVQRVESGGGLVQAGGSLRLSCAASGRTFGYNAMGWYRQAPGKERELVAAISSSGGSTYYADSVKGRFTISRDNAKNTVYLQMNSLKPEDTAVYYCATQGYSWAHGSDYWGQGTQVTVSS	low polyreactivity
QVKLVESGGGLVQAGGSLRLSCAASGRTFGVYAMGWYRQAPGKEREFVATITSRGGRTYYADSVKGRFTISRDNAKNTVYLQMNSLKPEDTAVYYCAVGRGSLRGRTDGGYWGQGTQVTVSS	high polyreactivity
QVQLVESGGGLVQAGGSLRLSCAASGIILPYYAMGWYRPAPGKEREFVATISSDGTSTYYADSVKGRFTISRDNAKNTVYLQMNSLKPEDTAVYYCDARIRQNPGGDNSWGQGTQVTVSS	low polyreactivity
QVQRVESGGGLVQAGGSLRLSCAASGIIFPHNAMGWYRQAPGKERELVATISRSGARTYYADSVKGRFTISRDNAKNTVYLQMNSLKPEDTAVYYCAVQRLVYVYGAYDYWGQGTQVTVSS	high polyreactivity
QVQLQESGGGLVQAGGSLRLSCAARGSICLDQPMGWYRQSPCKDPELVATIGQGGNTNYADSVKGRFTISRDNEKNTVYLYMTSLKPEDTAVYYCAVVYFYNYAYHYYWGQGTQVTVCS	low polyreactivity
QVQVVESGGGLVQAGGSLRLSCAPSGRIFLGNRMSWYRHAPGKERELVAAISKSGGTTYYADSVKGRFTISRDNAKNTVYLQMNSLKPEDTAVYYCAASRPRPPSSRRMDYWGQGTQVTVSS	high polyreactivity
QVQLVESGGGLVQAGGSLRLSCAASGSIFFYYAMGWYRQAPGKERELVAAIRSGTSTNYADSVKGRFTISRDNAKNTVYLQMNSLKPEDTAVYYCAARFPGGGYGMDYWGQGTKVTVSS	low polyreactivity
QFQLVESGGGLVQAGGSLRLSCAASGSTFKYYAKGWYRQAPGKERELVAAISARTGSTYYADSVKGRFTISRDNEKNTVYLQMNILKPEDTAVYYCNKLTWRGEVDYWGQGTQVTESS	high polyreactivity
QVQLVESGGGLVQAGGSLRLSCAASGFIFVKYAIGWYRTAPGKERELVAAITTSGTGTFYADSVKGRFTISRDNAKNTVYLQMNSLKPEDTAVYYCNALGHPGDDWGQGTQVTVSS	low polyreactivity
QDQLVESGGGLLQAGGSLRLSCAASGRNFVRNAMGWYRQAPGKEWELVAAISWSSGGTYYADSVKGRFTISRDNAKYTVYLQMNSLKPEDNSVYYCNARGWTLGADFGYWGQGTQVTVSS	low polyreactivity
QVQLVESGGGLFQAGGSLRLSCAASGRTFWRYAMAWYRQAPGKERELVARISWRGGSTNYADSVKGRFTISRDNAKNTVYLQMNSLKPAETAVYYFNAEVLNYLVFGYQLGYDYWGQGTQGTVSS	low polyreactivity
QVQLVESGGGLVQAGGSLRLSCAASGSTFYKYAMGWYRQAPGKERELVASISRSGGSTSYADSVKGRFTITRDNAKNTVYLQMNSLKPEDTAVYYCAATWRQHPGSMGYWGQGTQVTVSS	high polyreactivity
QVQLVESGGGLVQAGGSLRLSCAASGSTFHRYAMGWYRQAPGKERELVAAISVRTGSTYYADSVKGRFTISRDNAKNTVYLQMNSLKPEDTAVYSCAVGKQINGKIYRYDYWGQGTQVTVSS	high polyreactivity
QVQLVESGGGLVQAGGSLRLSCAASGFTFHYYAMGWYRQAPGKERELVAAISSSGGNTYYADSVKGRFTISRDNAKNTVYLQMNSLKPEDTEVYYCNAYSFFLGGYDYWGQGTQVTVSS	high polyreactivity
QVQLVESGGGLVQAGGSLRLSCAASGYIFGHYTMGWYRQAPGKERELVAGISSGGITYYADSVKGRFTISRDNAKNSDYLQMNSLKPEDTAVYYCAAYWRRRLDYYYWGQGTQVTVSS	high polyreactivity
QVQLQESVGGLVQAGGSLRLSCAASGTIFWGDDMGWYRQAPGKERELVASINDGSITYYADSVKGRFTISRDNAKNTVYLQMNSLKPEDTAVYYCAVRIAVVKSYLIYNYWGQGTQVTVSS	high polyreactivity
QVHLVDSGGGLVQAGGSLRLSCAASGFIFWSYAMGWYRQAPGKERELVAAISFRGGSTFYADSVKGRFTISRDNAKNTVYLQMNSLKPEDTAVYYCAVGVYPSYRGPTFSTRRDYWGQGTQVTVSS	low polyreactivity
QVQLVDSGGGLVQAGVSLRLSCAASGSTFVGYAIGSYSQAPGKERELVAAISRSGGRTYYADSVKGRFTISRDKAKNTVYLQMNSLKPEDTAVYYCYPYYIASTFDEWGQGTQVTVSS	high polyreactivity

Sequence	polyreactivity (PSR sort gate)
QVQLVESGGGVVQAGGSLRLSCAASGSTSYFNVIGWYRPAPGKERELVAAISWSGGSTYADSVKGRFTISRDNAKNTVYLQMNSLKREDTAVYYCNKDYGYVQLRFSGPGYYWGQGTQVTVSS	low polyreactivity
QVQLVESGGGLVQAGGSLRLSCAASGRTFYWYTMGWYRQAPGKERELVAAITYRAGSTYYADSVKGRFTISRDNAKNTVYLQMNSLKPEDTAVYYCNADPPPEYYPDKDNYWGQGTQVTVSS	low polyreactivity
QVQLVESGGGLVQAGGSLRLSCAASGITFYFNAMGWYRQAPGKERELVAANTSGGGSTYYADSVKGRFTISRDNAKNTVYLQRNSLKPEDTAVYYCAAEWSYGGMDYWGQGTQVTVSS	low polyreactivity
QVQLVETGRGLVQAGGSLRLSCAASGRIFRGYAMGWYRQAPGKERELVAAINWSGGNTYYADSVKGRFTISRDNAKNTVYLQMNSLKPEDTAVYYCATLGYLGGGYWGQGTQVTVSS	high polyreactivity
QVQLVESGGGLVQAGGSLRLSCAASGSTFAPNAMGWYRQAPGKERELVAAISSGSSTYYADSVKGRFTISRDNAKNTVYLQMNSLKQEVNAVYYCAARSTYYSRKQLVDYWGQGTQVTVSS	high polyreactivity
QVQVEESGGGLVQAGGSLRLSCAASGSIFNRYAMGWYRQAPGKERELVAAISRSGSTYYADSVKGRFTISRDNAKNTVYLQMNSLKAEDTEVYYCNARGTTHHTSYDYWGQGTQVTVSS	low polyreactivity
QVQLVESGGGLVQAGGSLRLSCAASGRIFRYYAMGWYRKAPGKERELVASISQRGGSTYYADSVKGRFTISRDNAKNTVYLQMNSLKPEDTAVYYCAARRSTVFILDYDWGQGTQVTVSS	high polyreactivity
QVQLVESGGGLVQAGGSLRLSCAASGYTVGTYDMGWYRQAPGKERELVAAISIGGSTNYADSVKGRFTMSRDNAKNTVYLQMNSLKPDATAVSYCASEVNVGTLLLSVIVEDGDYWGQGTQVTVSS	low polyreactivity
QVQLVESGGGLVQAGGSLRLSCAASGNTFSGNAMGWYRQAPGKQRELVATINSGGGSTNYADSVTGRFSISRDNAKNTVYLQMNSLKPEDTAGYYCAASAYTWRGIDSSYLTVTYDYWGQGTQVTVSS	low polyreactivity
QVQLVESGGGLVQAGGSLRLSCAASGITFVRYAMAWYRQAPGKEREFVAAINSIVGRTYYADSVKGRFTISRDNAKNTVYLQMNSLKPEDTAVYYCAADSNVRFGMDYWGQGTQVTVSS	low polyreactivity
QVQLVESGGGLVQAGGSLRLSCAASGRTFDRYAMGWYRQAPGKERELVAVIRFIGGSTYYADSVKGRFTISRDNAKNTVYLQMISLKPEDTAVYFCAADATIDWVDYDYWGQGTQVTVSS	low polyreactivity
QVQLVESGGGLVQAGGSLRLSCAASGFIFLDYAMGWYRQAPGKERELVAAISSRGARTYYADSVKGRFTISRDNAKNTVYVQMNSLKPEDTAVYYCAARGPLDRYGYWGQGTQVTVSS	high polyreactivity
QVQLVESGGGLVQAGGSLRLSCAASGSTFFGYAMGWYREAPGKERELVAAISSRGGSTYYADSVKGRFTISRDNAKKTVYLQMNSLKPEDTAVYYCNKVYHYPYYYWGQGTQVTVSS	high polyreactivity
QVQLVESGGGLVQAGGSLRLSCAASGRTYRSNVMGWYRQAPGKERELVASITWSGGTTYYADSVKVRFTISRDNAKNTVYLQMNSLKPEDTAVYYCNAADERSQGWVGYDHWGQCTQVTVSS	low polyreactivity
QVHLVESGGGLVQAGGSLRLSCAASGITDWIYAMGWYRQAPGKERELVAAITGRGGSTYYADSVKGRFTISRDKAKNTVYLQMNSLKPEVTAVDYCAAESWYSTYDYWGQGTQVTVSS	high polyreactivity
KVQLVESGGGLVQAGGSLRLSCAASGFTFYWYDMGWYRQAPGKERELVATISTGGGTNYADSVKGRFTISRDNAKNTVYLQMKSLKPEDTAVYYCAADGSAGYQWGYDFEGDYWGQGTQVTVSS	high polyreactivity
QVQLVESGGGLVQAGGSLRLSCAASGITLYFYAMGWYRQAPGKERELVAGISGSVGSTHYADSVKGRFTISRDNAKNTVYLQMNSLKPEDTAVYYCAARYPFLRPKVNYWGQGTQVTVSS	high polyreactivity
QVQLVESGGGLVQAGGSLRLICAASGSTFTLYAMGWYRQAPGKERELVAAISGIGDSTYYADSVKGRFTISRDNAKNTVYLQMNSLKPEDTAVYYCAADGEYRYDWEYESWGQGTQVTVSS	low polyreactivity
QVPLVESGGGLVQAGGSLRLSCAASGLTFDIYTMGWYRQAPGKERELVARISTSGSRTYYADSVKGRFTISRDYAKNTVYLQMNSLIPEDTAVYYCNKDGWIRRRRGSDYWGQGTQVTVSS	high polyreactivity
QVQLVESGGGLVQAGGSLRLSCAASGSIFYFYAMGWYRQAPGKERELVASIRWSCGRTRYADSVKGRFTISRDNAKNTVYLQMNSLKPEDTAVYYCAARGGGRPYDYWGQGTQVTVSS	high polyreactivity
QVHLVESGGGLVQAGGSLRLSCAACGSNLFVNTMGWYRQAPGKERELVAAISWIDGSTYYADSVKGRFTISRDNAKNSVYLHMNSLKPEDTAVYYCAASTYWREYDYWGQGTQVNVSS	low polyreactivity
